Data from publication PMC8213124, “Chemokines act as phosphatidylserine-bound “find-me” signals in apoptotic cell clearance” (PLoS Biology, 2021).

Biological target: the molecule itself
Experiment: cross-linking; 50 ng chemokine in 20 mM HEPES, 30 min at room temperature without or with phospholipid (brain PE, PC, PS or heart CL; 1:8 chemokine:total lipid molar ratio), then 0.25 mM BS3 for 30 min; SDS-PAGE and immunoblot with anti-chemokine antibodies

| Protein | binding result |
| --- | --- |
| CXCL9 (natural protein, human, UniProt Q07325 23-125, looked up, human chemokine CXCL9, untagged recombinant protein; source: bought: Peprotech, recombinant, produced in Escherichia coli) TPVVRKGRCSCISTNQGTIHLQSLKDLKQFAPSPSCEKIEIIATLKNGVQTCLNPDSADVKELIKKWEKQVSQKKKQKNGKKHQKKKVLKVRKSQRSRQKKTT | binds |
| CXCL11 (natural protein, human, UniProt O14625 22-94, looked up, human chemokine CXCL11, untagged recombinant protein; source: bought: Peprotech, recombinant, produced in Escherichia coli) FPMFKRGRCLCIGPGVKAVKVADIEKASIMYPSNNCDKIEVIITLKENKGQRCLNPKSKQARLIIKKVERKNF | binds |
